The source of these data is patent US20130089544A1.

pKd: −log10 of the molar value.

Experiment [1] deals with human ErbB2, full length, on cells (human) (UniProt P04626). The experiment is described as follows: cell-based or functional assay.
The target of experiment [2] is human ErbB2 ECD-myc/His fusion protein (human) (UniProt P04626). The experiment is described as follows: SPR, Biacore T100 high resolution; mAb captured on goat anti-human IgG, hHer-2(ECD)cMyc injected; 1:1 fit. For orientation: In SPR one partner is held on a chip, and binding of the other changes the refractive index at the surface.

In the case of chimeric anti-hErbB2 antibody 2C4, in experiment [1], the % Inhibition @10 µg/ml, Heregulin-induced MCF7 cell proliferation worked out at 90%; the EC50 (ng/ml) n1, inhibition of Heregulin-induced ErbB2 phosphorylation in MCF7 cells is 43.6 ng/mL; the EC50 (ng/ml) n2, inhibition of Heregulin-induced ErbB2 phosphorylation in MCF7 cells turned out to be 14.6 ng/mL; the EC50 (ng/ml), inhibition of Heregulin-induced MCF7 cell proliferation amounted to 404 ng/mL. In addition, in experiment [1], the EC50 (ng/ml), inhibition of SKBR3 cell proliferation was above 36000 ng/mL; the N1 % Inhibition @40 µg/ml, BT474 cell proliferation is -9%; the N1 EC50 (ng/ml), inhibition of BT474 cell proliferation is above 40000 ng/mL; the N2 EC50 (ng/ml), inhibition of BT474 cell proliferation was found to be 4750 ng/mL. Besides, the negative logarithm of the Kd (pKd) in experiment [2] is 8.49.

A word on the pKd: it is the Kd on a negative log10 scale, so that one unit is a factor of ten. Low values mean a high Kd, high ones a low Kd.
